Experimental data as given in PMC8166883.

Columns and labels:
[1] = molecular target: FLAG-tagged human tumor necrosis factor α (FLAG-hTNFα) (human) (UniProt P01375); assay: SPR
[2] = molecular target: FLAG-tagged human vascular endothelial growth factor-A (FLAG-hVEGF-A) (human) (UniProt P15692); assay: SPR
Chain of FLAG-tagged human vascular endothelial growth factor-A (FLAG-hVEGF-A) (human) (P15692 other isoform, or with tags, fused parts or gaps): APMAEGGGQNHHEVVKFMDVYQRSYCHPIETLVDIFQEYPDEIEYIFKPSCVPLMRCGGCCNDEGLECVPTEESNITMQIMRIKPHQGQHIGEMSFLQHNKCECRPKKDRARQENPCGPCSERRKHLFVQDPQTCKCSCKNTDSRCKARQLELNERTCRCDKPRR

Chain of FLAG-tagged human tumor necrosis factor α (FLAG-hTNFα) (human) (P01375 whole entry): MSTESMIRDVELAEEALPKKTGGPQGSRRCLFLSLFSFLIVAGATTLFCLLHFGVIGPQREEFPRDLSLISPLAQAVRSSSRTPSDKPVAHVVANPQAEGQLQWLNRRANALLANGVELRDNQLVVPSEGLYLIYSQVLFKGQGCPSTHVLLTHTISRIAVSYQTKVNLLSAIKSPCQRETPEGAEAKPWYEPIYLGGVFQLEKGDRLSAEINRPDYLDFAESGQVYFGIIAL

| Substance | Kd [1] [pM] | koff [1] [s⁻¹] | Kd [2] [pM] | koff [2] [s⁻¹] |
| --- | --- | --- | --- | --- |
| adalimumab | 410 | 0.00036 | – | – |
| bevacizumab | – | – | 341 | 0.000105 |
